Measured values: US20200392219A1, “EXTRACELLULAR VESICLES COMPRISING MEMBRANE-TETHERED TGF-BETA, COMPOSITIONS AND METHODS OF USE THEREOF” (TRUSTEES OF TUFTS COLLEGE, priority 2017, published 2020)

B1: RNase: RNAse A enzyme used to pre-treat EV (protein, UniProt P61823 27-150, looked up)
Ribonuclease pancreatic: KETAAAKFERQHMDSSTSAASSSNYCNQMMKSRNLTKDRCKPVNTFVHESLADVQAVCSQKNVACKNGQTNCYQSYSTMSITDCRETGSSKYPNCAYKTTQANKHIIVACEGNPYVPVHFDASV
B2: TGF-β3: recombinant human TGF-β3 (Sigma) (protein, UniProt P10600 301-412, looked up)
Transforming growth factor …: ALDTNYCFRNLEENCCVRPLYIDFRQDLGWKWVHEPKGYYANFCSGPCPYLRSADTTHSTVLGLYNTLNPEASASPCCVPQDLEPLTILYYVGRTPKVEQLSNMVVKSCKCS
B3: proteinase K: protease used with RNAse A to pre-treat EV (protein, UniProt P06873 106-384, looked up)
Proteinase K: AAQTNAPWGLARISSTSPGTSTYYYDESAGQGSCVYVIDTGIEASHPEFEGRAQMVKTYYYSSRDGNGHGTHCAGTVGSRTYGVAKKTQLFGVKVLDDNGSGQYSTIIAGMDFVASDKNNRNCPKGVVASLSLGGGYSSSVNSAAARLQSSGVMVAVAAGNNNADARNYSPASEPSVCTVGASDRYDRRSSFSNYGSVLDIFGPGTSILSTWIGGSTRSISGTSMATPHVAGLAAYLMTLGKTTAASACRYIADTANKGDLSNIPFGTVNLLAYNNYQA
B4: heparinase: heparinase III (Sigma), disrupts heparin sulfate side chains on beta-glycan (protein, UniProt Q59289 25-659, looked up)
Heparin-sulfate lyase: QSSSITRKDFDHINLEYSGLEKVNKAVAAGNYDDAAKALLAYYREKSKAREPDFSNAEKPADIRQPIDKVTREMADKALVHQFQPHKGYGYFDYGKDINWQMWPVKDNEVRWQLHRVKWWQAMALVYHATGDEKYAREWVYQYSDWARKNPLGLSQDNDKFVWRPLEVSDRVQSLPPTFSLFVNSPAFTPAFLMEFLNSYHQQADYLSTHYAEQGNHRLFEAQRNLFAGVSFPEFKDSPRWRQTGISVLNTEIKKQVYADGMQFELSPIYHVAAIDIFLKAYGSAKRVNLEKEFPQSYVQTVENMIMALISISLPDYNTPMFGDSWITDKNFRMAQFASWARVFPANQAIKYFATDGKQGKAPNFLSKALSNAGFYTFRSGWDKNATVMVLKASPPGEFHAQPDNGTFELFIKGRNFTPDAGVFVYSGDEAIMKLRNWYRQTRIHSTLTLDNQNMVITKARQNKWETGNNLDVLTYTNPSYPNLDHQRSVLFINKKYFLVIDRAIGEATGNLGVHWQLKEDSNPVFDKTKNRVYTTYRDGNNLMIQSLNADRTSLNEEEGKVSYVYNKELKRPAFVFEKPKKNAGTQNFVSIVYPYDGQKAPEISIRENKGNDFEKGKLNLTLTINGKQQLVLVP
B5: heat-inactivated heparinase: heat-inactivated heparinase (control) (protein, UniProt Q59289 25-659, looked up)
Heparin-sulfate lyase: B4 Heparin-sulfate lyase
modifications: heat-inactivated

System: CD4+ T cells (ConA-stimulated PBMC)
Assay: ConA mitogen-induced CD4+ T cell proliferation in CFSE-stained PBMC (PBMC responder/suppression assay)
Format: cell-based, canine
Conditions: for effect of pre-treating WJ-MSC EV on their suppression of CD4+ T cell division: 0.1% Triton-X, 2 μg/ml RNAse A, proteinase K 30 min 37°C, heparinase 0.006 U/ml 3 hours, 10^4 EV:1 PBMC
Procedure: Serum-free culture medium from canine Wharton's Jelly mesenchymal stem cells (WJ-MSC: CD44^+, CD90^+, CD34^−, CD45^−, MHCII^−, n=6 cell lines) was collected after 48 hours, and extracellular vesicles (WJ-EV) were isolated by differential centrifugation. WJ-EV output was assessed using single vesicle nanoparticle tracking analysis (NTA). CFSE-stained peripheral blood mononuclear cells (PBMC) were collected from healthy dogs (n=8), exposed to Concanavalin A mitogen (ConA; 5 μg/ml) and co-incubated with WJ-MSC (1:10) across transwell membrane (0.4 μm pore size) or with WJ-MSC EV (1:10^4)±10 μM SB431542 (TGFβR1 inhibitor) or TGF-β neutralizing (e.g., inhibiting) antibody (Ab) for 72 hours. Analysis of CFSE fluorescence using FlowJo (v7.6.5) yielded % CD4^+ cells that had undergone division (T-cell proliferation).
PBMC responder assay: Twelve healthy adult purpose-bread Beagle dogs (5 neutered males, 7 spayed females) housed at the Laboratory Animal Medicine department at the Cummings School of Veterinary Medicine at Tufts University served as blood donors under an approved protocol. […] or WJ-MSC were tested in triplicate against a minimum of 3 different PBMC donor cell samples (see Figure legends for ‘n’ of each experiment). Healthy status was confirmed by clinical examination, and hematological and serum biochemical testing within six months of blood sampling. All dogs were fasted for 12 hours prior to peripheral blood sampling. Peripheral blood samples were taken via jugular venipuncture using a 21 gauge needle, and blood was immediately placed into an EDTA collection tube and rotated 1-2 times gently. Blood was diluted 1:1 with cold PBS or centrifuged (1300×g, 10 min) prior to dilution 1:2 in PBS, followed by density-gradient centrifugation using Ficoll-Paque (density 1.077; GE Healthcare Life Sciences) to harvest peripheral blood mononuclear cells (PBMC). PBMC were washed in RPMI (Life Technologies) supplemented with 10% heat-inactivated fetal bovine serum (Gibco), […] (Life Technologies), 100 μM β-mercaptoethanol (Sigma-Aldrich), 10,000 U/ml penicillin-streptomycin, 2 mM L-glutamine (Life Technologies), and 2.2 mg/mL of sodium bicarbonate (Thermo Fisher Scientific) (complete RPMI, ‘cRPMI’). For mitogen induced lymphocytes proliferation assays, PBMC were suspended in 1 ml cRPMI and 0.5 μof 10 mM carboxyfluorescein succinimidyl ester (CFSE, Thermo Fisher Scientific) and were incubated (10 min). For initial characterization of WJ-MSC effects on responder PBMC, PBMC were plated on a 24-well plate on the top of a 0.4 μm Transwell (Corning) across from the WJ-MSC in a 10:1 ratio (PBMC:MSC) in a total volume of 1 ml medium (n=3 technical replicates/sample). All plates were incubated at 37° C. in the dark for 72 hours prior to analysis.
Dose-responses of TV MSC-EV: To investigate the dose response of PBMC to WJ-MSC EV, the […] were plated on a 96-well plate in cRPMI with addition of 1 mM ATP, with or without 5 μg/ml Concanavalin A (ConA, Sigma-Aldrich). Responder PBMC were incubated with WJ-MSC EV in a total volume of 200 μL medium (n=3 technical replicates per sample). PBMC were incubated with WJ-MSC EV in a 1:10^2, 1:10^3, or 1:10^4 (PBMC:EV) ratio. After 72 hours of incubation, the PBMC were collected and surface stained for CD4 (rat anti-canine CD4-Alexa 647, clone YKIX302.9, AbD Serotec). Cells were stained for 30 minutes, washed twice with cold PBS and 5% FBS, and resuspended in 200 μl PBS and 5% FBS with 5 μl 7AAD (Becton Dickinson) for analysis by flow cytometry (Accuri C6, Becton Dickinson). The effect of WJ-MSC or WJ-MSC EV on CD4-positive (CD4^+) T cell (i.e., T helper cell) proliferation (percentage of cells proliferating, number of divisions for proliferating cells) was measured by evaluating CFSE fluorescence utilizing the FlowJo® proliferation platform (FlowJo, V10, Ashland, Oreg.) after gating on the viable CD4^+ lymphocyte population. […]

Molecule | effect of pre-treating WJ-MSC EV on their suppression of CD4+ T cell division | suppression of mitogen driven T cell division by exogenous TGF-β (5 ng/ml added to ConA stimulated PBMC) | suppression of mitogen driven T cell division by exogenous TGF-β (10 ng/ml added to ConA stimulated PBMC) | suppression of mitogen driven T cell division by exogenous TGF-β (50 ng/ml added to ConA stimulated PBMC)
B1 | reduced | – | – | –
B2 | – | not | suppressed | suppressed
B3 | reduced | – | – | –
B4 | reduced EV suppression | – | – | –
B5 | absent | – | – | –
